Measured values as given in ChEMBL document CHEMBL5137095, “N-Benzyl Benzamide Derivatives as Selective Sub-Nanomolar Butyrylcholinesterase Inhibitors for Possible Treatment in Advanced Alzheimer's Disease” (J Med Chem, 2022).

What was measured:
[1] = compound: CCN(CC)Cc1ccccc1CNC(=O)c1cccc(NC(=O)c2ccc(F)cc2)c1; assay: Mixed type inhibition of human BChE assessed as Vmax at 0.2 nM using BTC as substrate by Lineweaver-Burk plot analysis
[2] = compound: CCN(CC)Cc1ccccc1CNC(=O)c1cccc(NC(=O)c2ccc(F)cc2)c1; assay: Mixed type inhibition of human BChE assessed as Vmax at 0.4 nM using BTC as substrate by Lineweaver-Burk plot analysis
[3] = compound: CCN(CC)Cc1ccccc1CNC(=O)c1cccc(NC(=O)c2ccc(F)cc2)c1; assay: Mixed type inhibition of human BChE assessed as Vmax at 0.8 nM using BTC as substrate by Lineweaver-Burk plot analysis
[4] = compound: CCN(CC)Cc1ccccc1CNC(=O)c1cccc(NC(=O)c2ccc(F)cc2)c1; assay: Mixed type inhibition of human BChE assessed as Vmax at 1 nM using BTC as substrate by Lineweaver-Burk plot analysis
[5] = compound: CCN(CC)Cc1ccccc1CNC(=O)c1cccc(NC(=O)c2ccc(F)cc2)c1; assay: Mixed type inhibition of human BChE assessed as Vmax at 1.5 nM using BTC as substrate by Lineweaver-Burk plot analysis
[6] = compound: CCN(CC)Cc1ccccc1CNC(=O)c1cccc(NC(=O)c2ccc(F)cc2)c1; assay: Mixed type inhibition of human BChE assessed as Km at 0.2 nM using BTC as substrate by Lineweaver-Burk plot analysis
[7] = compound: CCN(CC)Cc1ccccc1CNC(=O)c1cccc(NC(=O)c2ccc(F)cc2)c1; assay: Mixed type inhibition of human BChE assessed as Km at 0.4 nM using BTC as substrate by Lineweaver-Burk plot analysis
[8] = compound: CCN(CC)Cc1ccccc1CNC(=O)c1cccc(NC(=O)c2ccc(F)cc2)c1; assay: Mixed type inhibition of human BChE assessed as Km at 0.8 nM using BTC as substrate by Lineweaver-Burk plot analysis
[9] = compound: CCN(CC)Cc1ccccc1CNC(=O)c1cccc(NC(=O)c2ccc(F)cc2)c1; assay: Mixed type inhibition of human BChE assessed as Km at 1 nM using BTC as substrate by Lineweaver-Burk plot analysis
[10] = compound: CCN(CC)Cc1ccccc1CNC(=O)c1cccc(NC(=O)c2ccc(F)cc2)c1; assay: Mixed type inhibition of human BChE assessed as Km at 1.5 nM using BTC as substrate by Lineweaver-Burk plot analysis
[11] = compound: CCN(CC)Cc1ccccc1CNC(=O)c1cc(C)cc(NC(=O)c2ccc(F)cc2)c1; assay: Non competitive inhibition of human BChE assessed as Vmax at 0.02 nM using BTC as substrate by Lineweaver-Burk plot analysis
[12] = compound: CCN(CC)Cc1ccccc1CNC(=O)c1cc(C)cc(NC(=O)c2ccc(F)cc2)c1; assay: Non competitive inhibition of human BChE assessed as Vmax at 0.1 nM using BTC as substrate by Lineweaver-Burk plot analysis
[13] = compound: CCN(CC)Cc1ccccc1CNC(=O)c1cc(C)cc(NC(=O)c2ccc(F)cc2)c1; assay: Non competitive inhibition of human BChE assessed as Vmax at 0.12 nM using BTC as substrate by Lineweaver-Burk plot analysis
[14] = compound: CCN(CC)Cc1ccccc1CNC(=O)c1cc(C)cc(NC(=O)c2ccc(F)cc2)c1; assay: Non competitive inhibition of human BChE assessed as Vmax at 0.15 nM using BTC as substrate by Lineweaver-Burk plot analysis
[15] = compound: CCN(CC)Cc1ccccc1CNC(=O)c1cc(C)cc(NC(=O)c2ccc(F)cc2)c1; assay: Non competitive inhibition of human BChE assessed as Km at 0.02 nM using BTC as substrate by Lineweaver-Burk plot analysis
[16] = compound: CCN(CC)Cc1ccccc1CNC(=O)c1cc(C)cc(NC(=O)c2ccc(F)cc2)c1; assay: Non competitive inhibition of human BChE assessed as Km at 0.1 nM using BTC as substrate by Lineweaver-Burk plot analysis
[17] = compound: CCN(CC)Cc1ccccc1CNC(=O)c1cc(C)cc(NC(=O)c2ccc(F)cc2)c1; assay: Non competitive inhibition of human BChE assessed as Km at 0.12 nM using BTC as substrate by Lineweaver-Burk plot analysis
[18] = compound: CCN(CC)Cc1ccccc1CNC(=O)c1cc(C)cc(NC(=O)c2ccc(F)cc2)c1; assay: Non competitive inhibition of human BChE assessed as Km at 0.15 nM using BTC as substrate by Lineweaver-Burk plot analysis

B1: Cholinesterase (Homo sapiens), P06276 (protein)
chain: MHSKVTIICIRFLFWFLLLCMLIGKSHTEDDIIIATKNGKVRGMNLTVFGGTVTAFLGIPYAQPPLGRLRFKKPQSLTKWSDIWNATKYANSCCQNIDQSFPGFHGSEMWNPNTDLSEDCLYLNVWIPAPKPKNATVLIWIYGGGFQTGTSSLHVYDGKFLARVERVIVVSMNYRVGALGFLALPGNPEAPGNMGLFDQQLALQWVQKNIAAFGGNPKSVTLFGESAGAASVSLHLLSPGSHSLFTRAILQSGSFNAPWAVTSLYEARNRTLNLAKLTGCSRENETEIIKCLRNKDPQEILLNEAFVVPYGTPLSVNFGPTVDGDFLTDMPDILLELGQFKKTQILVGVNKDEGTAFLVYGAPGFSKDNNSIITRKEFQEGLKIFFPGVSEFGKESILFHYTDWVDDQRPENYREALGDVVGDYNFICPALEFTKKFSEWGNNAFFYYFEHRSSKLPWPEWMGVMHGYEIEFVFGLPLERRDNYTKAEEILSRSIVKRWANFAKYGNPNETQNNSTSWPVFKSTEQKYLTLNTESTRIMTKLRAQQCRFWTSFFPKVLEMTGNIDEAEWEWKAGFHRWNNYMMDWKNQFNDYTSKKESCVGL
Vmax [1]: 0.7 s⁻¹
Vmax [2]: 0.86 s⁻¹
Vmax [3]: 0.63 s⁻¹
Vmax [4]: 0.61 s⁻¹
Vmax [5]: 0.48 s⁻¹
Km [6]: 511 s⁻¹
Km [7]: 558 s⁻¹
Km [8]: 621 s⁻¹
Km [9]: 684 s⁻¹
Km [10]: 707 s⁻¹
Vmax [11]: 0.38 s⁻¹
Vmax [12]: 0.24 s⁻¹
Vmax [13]: 0.19 s⁻¹
Vmax [14]: 0.15 s⁻¹
Km [15]: 205 s⁻¹
Km [16]: 204 s⁻¹
Km [17]: 201 s⁻¹
Km [18]: 201 s⁻¹
